One data set relates to K562 cells. Briefly: Internalization analysis by surface fluorescence quenching (FACS). The class given is cell-based, human. Particulars: 37° C., peak by 24 hours. On the procedure:
The % internalization=(Qn-Qo)/(Nn-Qo); Qn=MFI (Mean Fluorescence Intensity) for a sample at a specific time point, after quench; Nn=MFI for a sample taken at a specific time point, no quench; Qo=MFI for sample incubated only on ice at 0 hour, after quench.
As the development of antibody drug conjugate relies on the carrier antibody to be internalized to deliver the chemotherapeutic agent into the tumor cells, the ability of SNGmB1 being internalized by K-562 cells was also assessed.
K562 cells were first cultured in normal IMDM medium for 24 hours. On the second day, the cells are collected by centrifugation and washed once with warm PBS, followed by resuspending into culture medium with IMDM without phenol red (Gibco) supplemented with 2.5% charcoal-stripped FBS (Gibo) without phenol red. After culturing for 48 hours, the cells were collected and centrifuged for 5 minutes at 1000 rpm. The cells were then incubated with AlexaFluro488-labelled anti-ER-α36 antibody SNGmB1 37° C. for different time (1, 2, 4, 6, 24 hours) to allow internalization to occur. The internalization was stopped by putting the cells on ice. Antibody internalization analysis of SNGmB1 by K562 cells was performed by surface fluorescence quenching and measured by MFI as detected by FACS. An anti-anti-AlexaFluro488 antibody was used to quench the AlexaFluro488-labeled SNGmB1 antibody bound on the K562 cell surface.

Data set [1] addresses T1, ER-α36 protein in human tumor tissues (Homo sapiens, UniProt P03372).
T1 construct: from tissue; host or cells: paraffin sections of breast cancer patients' tissue
T1 sequence (P03372 1-310 isoform P03372-4): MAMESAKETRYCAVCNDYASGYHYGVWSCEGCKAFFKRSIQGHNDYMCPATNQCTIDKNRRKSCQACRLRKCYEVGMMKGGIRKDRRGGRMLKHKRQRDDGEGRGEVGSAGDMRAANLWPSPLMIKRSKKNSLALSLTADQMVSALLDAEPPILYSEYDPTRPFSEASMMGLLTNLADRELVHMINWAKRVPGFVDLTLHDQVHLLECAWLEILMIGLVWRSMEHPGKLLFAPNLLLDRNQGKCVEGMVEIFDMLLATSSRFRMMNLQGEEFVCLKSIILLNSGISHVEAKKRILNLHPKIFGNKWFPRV
Briefly: Immunohistochemistry (IHC) of human tissue samples. Particulars: paraffin tissue of breast cancer patients. On the procedure: Immunohistochemistry (IHC) assay was used to evaluate the ability of utilizing a specific antibody like SNGmB1 to better detect the presence of ER-α36 in human tissue samples. 4 μm thick paraffin tissue blocks of breast cancer patients were de-paraffinized by immersing in the xylene for twenty minutes twice, followed by rehydrating sequentially in 99%, 90%, 85%, 75%, 50% ethanol for 5 minutes each. The tissue sections were then washed three times with PBS. Antigen retrieval was then performed by heating in 95° C. citrate (pH 6.0) buffer for 15 minutes in microwave. Once cooled to room temperature, the sections were then washed with PBS three times, and incubated with 3% hydrogen peroxide for 20 minutes at room temperature, followed by washing with PBS. […] Upon washing with PBS five times, pre-diluted secondary antibody (ZSGB-Bio, Cat# PV-6000) was added and incubated for 20 minutes at room temperature. The sections were then washed with PBS and incubated with DAB solution for 2-5 minutes, followed by rinsing in distilled water for 5-10 minutes. The sections were then counter-stained in hematoxylin (ZSGB-BIO, Cat# ZLI-9609), followed by rinsing sequentially in 50%, 75%, 85%, 90% and 99% A ethanol to dehydrate. The sections were then cleared in xylene and sealed with neutral balsam before evaluated with microscope.

The test system of data set [2] is 4T1-ER-α36 positive cells. Briefly: 4T1-ER-α36 lung tumor metastasis model. Type of data set: in vivo, nude mice. On the procedure: FACS-sorted 4T1-ER-α36 positive cells (ATCC) (5*10^4) were injected in the nude mice via tail vein. Average 20 mg/kg body SNGmB1 or control IgG (20 mg/kg body weight) was administered by tail vein injection every 3 or 4 days for 18 days, and tamoxifen (1 mg/kg body weight) was intragastric administrated synchronously. […] Representative immunohistochemical images showing ALDH1 in lung metastatic foci with tamoxifen administrated tumor-bearing nude mice respectively after control IgG and SNGmB1 antibody treatment. Hematoxylin was used for counterstaining. Seen from FIG. 26a and FIG. 26b, it is illustrated that ALDH1 is decreased after SNGmB1 injection. scale bars 50 μm.

B1: SNGmB1: mouse monoclonal anti-ER-α36 antibody (mIgG2b), light chain SEQ ID NO: 16, heavy chain SEQ ID NO: 18 (antibody, listed as Mus musculus)
heavy: QAYLQQSGAELVRPGASVKMSCKASGYTFTSHNMHWIKQTPRQGLEWIGAIHPVNGDTAYNQKFKGKATLTVDKSSSTAYLQLSSLTSEESAVYFCAREGYGSVDYWGQGTTLTVSSAKTTPPSVYPLAPGCGDTTGSSVTLGCLVKGYFPESVTVTWNSGSLSSSVHTFPALLQSGLYTMSSSVTVPSSTWPSQTVTCSVAHPASSTTVDKKLEPSGPISTINPCPPCKECHKCPAPNLEGGPSVFIFPPNIKDVLMISLTPKVTCVVVDVSEDDPDVQISWFVNNVEVHTAQTQTHREDYNSTIRVVSTLPIQHQDWMSGKEFKCKVNNKDLPSPIERTISKIKGLVRAPQVYILPPPAEQLSRKDVSLTCLVVGFNPGDISVEWTSNGHTEENYKDTAPVLDSDGSYFIYSKLNMKTSKWEKTDSFSCNVRHEGLKNYYLKKTISRSPGK
light: ETTVTQSPASLSMTIGEKVTIRCITSTDIDDDMNWYRKKPGQPPKLLISEGNTLRPGVPSRFSSSGYGTDFVFTIENMLSEDVADYYCLQSDNLPLTFGAGTKLELKRADAAPTVSIFPPSSEQLTSGGASVVCFLNNFYPKDINVKWKIDGSERQNGVLNSWTDQDSKDSTYSMSSTLTLTKDEYERHNSYTCEATHKTSTSPIVKSFNRNEC
B1: the “percentage of internalized antibody (of the bound antibody)” value in the data set with K562 cells is recorded as approximately 75%. Further, in data set [1], the “detection of ER-α36 protein expression in human tumor tissues” value was “detected both membrane bound and cytoplasmic expression”. The “metastasis of lung tumor” value in data set [2] (nude mice, 20 mg/kg by tail vein every 3 or 4 days for 18 days, with tamoxifen 1 mg/kg) is listed as “prevents the metastasis of lung tumor”. Besides, the “ALDH1 in lung metastatic foci (immunohistochemistry)” value in data set [2] (tamoxifen administrated tumor-bearing nude mice, versus control IgG) is reported as “decreased”.

Values taken from patent US10233249B2, “Antibodies and methods for treating estrogen receptor-associated diseases” (BEIJING SHENOGEN PHARMA GROUP LTD., priority 2013, dated 2019).
